From article PMC5817723, “^99mTc-HYNIC-(tricine/EDDA)-FROP peptide for MCF-7 breast tumor targeting and imaging” (Journal of Biomedical Science, 2018)
Entries after “also recorded” stand apart in the source; their conditions may differ. Like-named read-outs stand apart in the source and are kept apart here. Residues, ends and D or L forms follow the SMILES beside them. *: point of attachment. HYNIC = NNc1ccc(C(=O)*)cn1

What was measured:
[1] = Partition coefficient between n-octanol and PBS; type: physicochemical; details: distribution between n-octanol and PBS; method of ref 22; mean ± SD; read-out: Log p (partition coefficient)
Description: (§1) The stability of ^99mTc-HYNIC-FROP in normal saline was evaluated using ITLC at various times (2, 4, 6 and 24 h) at room temperature. For serum stability, ^99mTc-HYNIC-FROP (30 μL) was incubated with freshly human plasma serum (90 μL) in triplicate at 37 °C. At 1 h of incubation, the plasma proteins were precipitated with a mixture of acetonitrile/ethanol (1:1 v/v) and centrifugation. The supernatant layer was filtered through a 0.22 μm filter and then the fraction was analyzed by RP-HPLC. Partition coefficient of ^99mTc-HYNIC-FROP was determined via method that previously was described.

[2] = Stability in human plasma serum, RP-HPLC; type: in vitro ADME; details: 37 °C, triplicate
Description: Reversed phase-HPLC was performed on a Knauer HPLC systems (Knauer HPLC, Berlin, Germany) using a Lablogic radioactivity gamma detector with a Eurospher 100–5 C-18, 4.6 × 250 mm (Knauer, Berlin, Germany) column with a pre-column. (Knauer HPLC, Berlin, Germany) HPLC was run using a gradient of 0.1% TFA in H2O (solvent A) and 0.1% TFA in CH3CN (solvent B) at a flow rate of 1 mL/min. A gradient with solvents A and B was run as follows: 0 min, 10% B; 0–10 min, 10–30% B; 10–20 min, 30–80% B; and 20–25 min, 80–100% B, for a total time of 30 min.
as §1

[3] = tested on: MCF-7 tumor bearing mouse; experiment: Planar gamma camera tumor imaging; type: in vivo; details: MCF-7 xenograft nude mouse, i.v., 15 min p.i.
Description: For gamma camera imaging, MCF-7 tumor bearing mouse was intravenously injected through the tail with ^99mTc-HYNIC-FROP. After 15 min p.i. the mouse immediately was anesthetized using ketamine/xylazine and whole-body dynamic imaging was conducted. The imaging was performed at the department of radiology at Mazandaran Hospital by a dual-head e.cam gamma camera (Siemens Medical Systems, Inc.), equipped with a low-energy, high-resolution collimator. The evaluation of the image was performed using an e-soft (Siemens Medical Systems).

[4] = Biodistribution in MCF-7 tumor-bearing nude mice; type: in vivo; details: female, C57 nu/nu, mouse, iv, total radioactivity; for tissue uptake at 0.5 h / tissue to tissue ratio at 0.5 h: 30 min p.i.
Description: The all animal studies were approved by Research and Ethical Committees of Mazandaran University of Medical Sciences. For xenografting, female C57 nu/nu mice were injected subcutaneously on the right upper back with a suspension of 1 × 10^7 MCF-7 cells and Matrigel® (BD, USA) and the tumors were allowed to grow for about 7–8 weeks. Estradiol valerate was injected subcutaneously into nude mice for 1 week. After tumor size reached in 1 cm^3, this tumor was removed from mouse in aseptic condition and was mechanically squelched with a mortar and with adding complete medium. Squelch of tumor tissue was centrifuged at 1500 rpm for 7 min at 4 °C. The upper medium was removed from tube and then complete medium and estradiol were added to cells pellet. […] Xenografts were allowed to develop during 2 months and the average tumor size was 1.01 ± 0.24 g. The in vivo biodistribution of ^99mTc-HYNIC-(tricine/EDDA)-Lys-FROP was performed on tumor bearing mice at 15 and 30 min post-injection. The mice (four mice in each time group) were injected with 100 μL of HYNIC-(tricine/EDDA)-Lys-FROP (1 μg) via a lateral tail vein. Mice were sacrificed with injection of a lethal dose of ketamine/xylazine after 15 and 30 min. The blood was collected from the heart puncture and the mice were dissected. Major organs (tumor, blood, heart, lung, liver, kidney, spleen, salivary gland, stomach, intestine, muscle and bone) were placed into pre weighed gamma counter tubes and radioactivity in each organ and tissue was measured using a gamma counter and expressed as a percent injected dose (% ID/g).
To confirm that the radiolabeled peptide was taken up specifically by MCF-7 tumor in vivo, the biodistribution of ^99mTc-HYNIC-FROP was performed with co-injection of a 500-fold (0.5 mg) excess non-radiolabelled FROP-1 and radiolabelled peptide in mice (N = 3 mice in this group). The unlabeled peptide was injected at 30 min before the injection of radiolabeled peptide.

SMILES: CSCC[C@H](NC(=O)[C@H](CC(C)C)NC(=O)[C@H](CCC(=O)O)NC(=O)[C@H](Cc1ccc(O)cc1)NC(=O)[C@H](CC(=O)O)NC(=O)[C@@H](N)CCC(=O)O)C(=O)N[C@@H](CC(=O)O)C(=O)N[C@@H](CC(C)C)C(=O)N[C@@H](CC(C)C)C(=O)N[C@@H](C)C(=O)N[C@@H](Cc1ccc(O)cc1)C(=O)N[C@@H](CC(C)C)C(=O)N[C@@H](CCCCNC(=O)c1ccc(NN)nc1)C(=O)O [^99mTc-HYNIC-FROP, metal not drawn] (H-EDYELMDLLAYLK(HYNIC)-OH)
- logD [1]: -2.03 ± 0.03
- stability in human plasma serum ([2]; 30 μL in 90 μL fresh human plasma serum, 1 h, RP-HPLC radiodetection): stable; also recorded: the major radioactivity was still associated with ^99mTc-FROP
- remaining at 1 h ([2]; abstract statement, human plasma serum, protein precipitation acetonitrile/ethanol 1:1, RP-HPLC): ~98%
- tumor visualization by planar gamma imaging [3]: tumor was clearly visualized
- tumor visualization by planar gamma imaging ([3]; listed as 99mTc-HYNIC-(tricine/EDDA)-FROP): tumor was clearly visible
- tissue uptake at 0.25 h ([4]; blood, 1 ug, i.v. tail vein 1 μg, 15 min p.i., n = 4, read-out: Blood uptake): 0.48 ± 0.09 %ID/g
- tissue uptake at 0.5 h ([4]; blood, 1 ug, i.v. tail vein 1 μg, n = 4, read-out: Blood uptake): 0.35 ± 0.1 %ID/g
- tissue uptake at 0.25 h ([4]; blood, Block: 500-fold (0.5 mg) excess unlabelled FROP-1, 15 min p.i., n = 3, read-out: Blood uptake): 0.69 ± 0.16 %ID/g
- tissue uptake at 0.25 h ([4]; bone, 1 ug, i.v. tail vein 1 μg, 15 min p.i., n = 4, read-out: Bone uptake): 0.18 ± 0.02 %ID/g
- tissue uptake at 0.5 h ([4]; bone, 1 ug, i.v. tail vein 1 μg, n = 4, read-out: Bone uptake): 0.24 ± 0.12 %ID/g
- tissue uptake at 0.25 h ([4]; heart, 1 ug, i.v. tail vein 1 μg, 15 min p.i., n = 4, read-out: Heart uptake): 0.49 ± 0.08 %ID/g
- tissue uptake at 0.5 h ([4]; heart, 1 ug, i.v. tail vein 1 μg, n = 4, read-out: Heart uptake): 0.26 ± 0.11 %ID/g
- tissue uptake at 0.25 h ([4]; heart, Block: 500-fold (0.5 mg) excess unlabelled FROP-1, 15 min p.i., n = 3, read-out: Heart uptake): 0.45 ± 0.03 %ID/g
- tissue uptake at 0.25 h ([4]; intestine, 1 ug, i.v. tail vein 1 μg, 15 min p.i., n = 4, read-out: Intestine uptake): 0.34 ± 0.09 %ID/g
- tissue uptake at 0.5 h ([4]; intestine, 1 ug, i.v. tail vein 1 μg, n = 4, read-out: Intestine uptake): 0.79 ± 0.25 %ID/g
- tissue uptake at 0.25 h ([4]; intestine, Block: 500-fold (0.5 mg) excess unlabelled FROP-1, 15 min p.i., n = 3, read-out: Intestine uptake): 0.64 ± 0.09 %ID/g
- tissue uptake at 0.25 h ([4]; 1 ug, MCF-7 tumor, i.v. tail vein 1 μg, 15 min p.i., n = 4, read-out: Tumor uptake): 0.25 ± 0.02 %ID/g
- tissue uptake at 0.5 h ([4]; 1 ug, MCF-7 tumor, i.v. tail vein 1 μg, n = 4, read-out: Tumor uptake): 0.38 ± 0.21 %ID/g
- tissue uptake at 0.25 h ([4]; MCF-7 tumor, Block: 500-fold (0.5 mg) excess unlabelled FROP-1, 15 min p.i., n = 3, read-out: Tumor uptake): 0.09 ± 0.02 %ID/g
- tissue uptake at 0.25 h ([4]; kidney, 1 ug, i.v. tail vein 1 μg, 15 min p.i., n = 4, read-out: Kidney uptake): 2.22 ± 0.16 %ID/g
- tissue uptake at 0.5 h ([4]; kidney, 1 ug, i.v. tail vein 1 μg, n = 4, read-out: Kidney uptake): 1.73 ± 0.15 %ID/g
- tissue uptake at 0.25 h ([4]; kidney, Block: 500-fold (0.5 mg) excess unlabelled FROP-1, 15 min p.i., n = 3, read-out: Kidney uptake): 2.97 ± 0.23 %ID/g
- tissue uptake at 0.25 h ([4]; liver, 1 ug, i.v. tail vein 1 μg, 15 min p.i., n = 4, read-out: Liver uptake): 0.2 ± 0.02 %ID/g
- tissue uptake at 0.5 h ([4]; liver, 1 ug, i.v. tail vein 1 μg, n = 4, read-out: Liver uptake): 0.14 %ID/g
- tissue uptake at 0.25 h ([4]; liver, Block: 500-fold (0.5 mg) excess unlabelled FROP-1, 15 min p.i., n = 3, read-out: Liver uptake): 0.26 ± 0.04 %ID/g
- tissue uptake at 0.25 h ([4]; lung, 1 ug, i.v. tail vein 1 μg, 15 min p.i., n = 4, read-out: Lung uptake): 0.45 ± 0.08 %ID/g
- tissue uptake at 0.5 h ([4]; lung, 1 ug, i.v. tail vein 1 μg, n = 4, read-out: Lung uptake): 0.41 ± 0.26 %ID/g
- tissue uptake at 0.25 h ([4]; lung, Block: 500-fold (0.5 mg) excess unlabelled FROP-1, 15 min p.i., n = 3, read-out: Lung uptake): 0.6 ± 0.04 %ID/g
- tissue uptake at 0.25 h ([4]; muscle, 1 ug, i.v. tail vein 1 μg, 15 min p.i., n = 4, read-out: Muscle uptake): 0.08 ± 0.01 %ID/g
- tissue uptake at 0.5 h ([4]; muscle, 1 ug, i.v. tail vein 1 μg, n = 4, read-out: Muscle uptake): 0.21 ± 0.16 %ID/g
- tissue uptake at 0.25 h ([4]; muscle, Block: 500-fold (0.5 mg) excess unlabelled FROP-1, 15 min p.i., n = 3, read-out: Muscle uptake): 0.15 ± 0.01 %ID/g
- tissue uptake at 0.25 h ([4]; salivary gland and thyroid, 1 ug, i.v. tail vein 1 μg, 15 min p.i., n = 4, read-out: S.T (Salivary Gland and Thyroid) uptake): 0.25 ± 0.03 %ID/g
- tissue uptake at 0.5 h ([4]; salivary gland and thyroid, 1 ug, i.v. tail vein 1 μg, n = 4, read-out: S.T (Salivary Gland and Thyroid) uptake): 0.32 ± 0.22 %ID/g
- tissue uptake at 0.25 h ([4]; salivary gland and thyroid, Block: 500-fold (0.5 mg) excess unlabelled FROP-1, 15 min p.i., n = 3, read-out: S.T (Salivary Gland and Thyroid) uptake): 0.25 ± 0.01 %ID/g
- tissue uptake at 0.25 h ([4]; spleen, 1 ug, i.v. tail vein 1 μg, 15 min p.i., n = 4, read-out: Spleen uptake): 0.15 ± 0.01 %ID/g
- tissue uptake at 0.5 h ([4]; spleen, 1 ug, i.v. tail vein 1 μg, n = 4, read-out: Spleen uptake): 0.28 ± 0.11 %ID/g
- tissue uptake at 0.25 h ([4]; spleen, Block: 500-fold (0.5 mg) excess unlabelled FROP-1, 15 min p.i., n = 3, read-out: Spleen uptake): 0.23 ± 0.07 %ID/g
- tissue uptake at 0.25 h ([4]; stomach, 1 ug, i.v. tail vein 1 μg, 15 min p.i., n = 4, read-out: Stomach uptake): 0.21 ± 0.01 %ID/g
- tissue uptake at 0.5 h ([4]; stomach, 1 ug, i.v. tail vein 1 μg, n = 4, read-out: Stomach uptake): 0.33 ± 0.12 %ID/g
- tissue uptake at 0.25 h ([4]; stomach, Block: 500-fold (0.5 mg) excess unlabelled FROP-1, 15 min p.i., n = 3, read-out: Stomach uptake): 0.26 ± 0.01 %ID/g
- tissue to tissue ratio at 0.25 h ([4]; tumor and blood, 1 ug, 15 min p.i., n = 4, read-out: Tumor/Blood ratio): 0.53 ± 0.15
- tissue to tissue ratio at 0.5 h ([4]; tumor and blood, 1 ug, n = 4, read-out: Tumor/Blood ratio): 1.09 ± 0.47
- tissue to tissue ratio at 0.25 h ([4]; tumor and blood, Block with excess FROP-1, 15 min p.i., n = 3, read-out: Tumor/Blood ratio): 0.14 ± 0.06
- tissue to tissue ratio at 0.25 h ([4]; tumor and bone, 1 ug, 15 min p.i., n = 4, read-out: Tumor/Bone ratio): 1.36 ± 0.28
- tissue to tissue ratio at 0.5 h ([4]; tumor and bone, 1 ug, n = 4, read-out: Tumor/Bone ratio): 1.57 ± 0.48
- tissue to tissue ratio at 0.25 h ([4]; tumor and bone, Block with excess FROP-1, 15 min p.i., n = 3, read-out: Tumor/Bone ratio): 0.4 ± 0.09
- tissue to tissue ratio at 0.25 h ([4]; tumor and liver, 1 ug, 15 min p.i., n = 4, read-out: Tumor/Liver ratio): 1.24 ± 0.28
- tissue to tissue ratio at 0.5 h ([4]; tumor and liver, 1 ug, n = 4, read-out: Tumor/Liver ratio): 2.62 ± 1.38
- tissue to tissue ratio at 0.25 h ([4]; tumor and liver, Block with excess FROP-1, 15 min p.i., n = 3, read-out: Tumor/Liver ratio): 0.36 ± 0.13
- tissue to tissue ratio at 0.25 h ([4]; tumor and muscle, 1 ug, 15 min p.i., n = 4, read-out: Tumor/Muscle ratio): 3.03 ± 0.12
- tissue to tissue ratio at 0.5 h ([4]; tumor and muscle, 1 ug, n = 4, read-out: Tumor/Muscle ratio): 1.94 ± 0.46
- tissue to tissue ratio ([4]; tumor and muscle, 1 ug, MCF-7 tumor-bearing nude mice, only 15 and 30 min p.i. tested, read-out: time of maximum tumor/muscle ratio): 15
- tissue to tissue ratio at 0.25 h ([4]; tumor and muscle, Block with excess FROP-1, 15 min p.i., n = 3, read-out: Tumor/Muscle ratio): 0.6 ± 0.12
- tissue to tissue ratio at 0.25 h ([4]; tumor and spleen, 1 ug, 15 min p.i., n = 4, read-out: Tumor/Spleen ratio): 1.61 ± 0.22
- tissue to tissue ratio at 0.5 h ([4]; tumor and spleen, 1 ug, n = 4, read-out: Tumor/Spleen ratio): 1.56 ± 1.04
- tissue to tissue ratio at 0.25 h ([4]; tumor and spleen, Block with excess FROP-1, 15 min p.i., n = 3, read-out: Tumor/Spleen ratio): 0.42 ± 0.14
